Values joined by “and” are separate entries in the source; they are usually repeats but may differ in a detail not shown here. Equal values may be shown once.
How the values were obtained:
[1] = target: huPrP(23−144) (human) (UniProt P04156); assay: NMR titration
[2] = target: huPrP(23−144) (human) (UniProt P04156); assay: co-sedimentation

Q: With “α-synuclein oligomers (from UniProt P37840 1-140) (complex)” as the substance, how does the stoichiometry N (αSyn:huPrP molar ratio) [1] read?
A: 1.45 and 0.92

Q: And the stoichiometry N (αSyn:huPrP(23−144)) [2]?
A: 0.96

— article PMC7347944
